Target: human melanocortin 1 receptor (human) (UniProt Q01726)
Sequence (Q01726 whole entry): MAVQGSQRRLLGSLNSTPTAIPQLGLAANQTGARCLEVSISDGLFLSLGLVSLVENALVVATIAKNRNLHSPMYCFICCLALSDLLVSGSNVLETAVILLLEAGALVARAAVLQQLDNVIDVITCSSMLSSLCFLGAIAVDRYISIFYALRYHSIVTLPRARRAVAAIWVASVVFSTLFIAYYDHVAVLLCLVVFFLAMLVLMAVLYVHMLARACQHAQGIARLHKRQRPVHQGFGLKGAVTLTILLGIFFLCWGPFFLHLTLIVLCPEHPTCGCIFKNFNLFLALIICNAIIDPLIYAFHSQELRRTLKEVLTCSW

In the case of DQYKCLQHGGFCLRSSCPSNTKLQGTCKPDKPNCCKS (reduced, linear form) [mouse β-defensin 1, linear, reduced form], the cAMP agonist EC50 (AlphaScreen cAMP assay, HEK293 cells expressing the receptor) is reported as 4.5 µM.
